The values that follow come from patent publication US12099068B2, “Biomarkers for graft-versus-host disease” (Incyte Corporation, priority 2018, dated 2024).

B1: PAR-1 (protein, UniProt P25116 42-425, looked up)
Proteinase-activated receptor …: SFLLRNPNDKYEPFWEDEEKNESGLTEYRLVSINKSSPLQKQLPAFISEDASGYLTSSWLTLFVPSVYTGVFVVSLPLNIMAIVVFILKMKVKKPAVVYMLHLATADVLFVSVLPFKISYYFSGSDWQFGSELCRFVTAAFYCNMYASILLMTVISIDRFLAVVYPMQSLSWRTLGRASFTCLAIWALAIAGVVPLLLKEQTIQVPGLNITTCHDVLNETLLEGYYAYYFSAFSAVFFFVPLIISTVCYVSIIRCLSSSAVANRSKKSRALFLSAAVFCIFIICFGPTNVLLIAHYSFLSHTSTTEAAYFAYLLCVCVSSISCCIDPLIYYYASSECQRYVYSILCCKESSDPSSYNSSGQLMASKMDTCSSNLNNSIYKKLLT
B2: RETN (protein, UniProt Q9HD89 19-108, looked up)
Resistin: KTLCSMEEAINERIQEVAGSLIFRAISSIGLECQSVTSRGDLATCPRGFAVTGCTCGSACGSWDVRAETTCHCQCAGMDWTGARCCRVQP
B3: SH2D1A (protein, UniProt O60880 1-128, looked up)
SH2 domain-containing protein …: MDAVAVYHGKISRETGEKLLLATGLDGSYLLRDSESVPGVYCLCVLYHGYIYTYRVSQTETGSWSAETAPGVHKRYFRKIKNLISAFQKPDQGIVIPLQYPVEKKSSARSTQGTTGIREDPDVCLKAP
B4: COMT (protein, UniProt P21964 1-271, looked up)
Catechol O-methyltransferase: MPEAPPLLLAAVLLGLVLLVVLLLLLRHWGWGLCLIGWNEFILQPIHNLLMGDTKEQRILNHVLQHAEPGNAQSVLEAIDTYCEQKEWAMNVGDKKGKIVDAVIQEHQPSVLLELGAYCGYSAVRMARLLSPGARLITIEINPDCAAITQRMVDFAGVKDKVTLVVGASQDIIPQLKKKYDVDTLDMVFLDHWKDRYLPDTLLLEECGLLRKGTVLLADNVICPGAPDFLAHVRGSSCFECTHYQSFLEYREVVDGLEKAIYKGPGSEAGP
B5: BCR (protein, UniProt P11274 1-1271, looked up)
Breakpoint cluster region …: MVDPVGFAEAWKAQFPDSEPPRMELRSVGDIEQELERCKASIRRLEQEVNQERFRMIYLQTLLAKEKKSYDRQRWGFRRAAQAPDGASEPRASASRPQPAPADGADPPPAEEPEARPDGEGSPGKARPGTARRPGAAASGERDDRGPPASVAALRSNFERIRKGHGQPGADAEKPFYVNVEFHHERGLVKVNDKEVSDRISSLGSQAMQMERKKSQHGAGSSVGDASRPPYRGRSSESSCGVDGDYEDAELNPRFLKDNLIDANGGSRPPWPPLEYQPYQSIYVGGMMEGEGKGPLLRSQSTSEQEKRLTWPRRSYSPRSFEDCGGGYTPDCSSNENLTSSEEDFSSGQSSRVSPSPTTYRMFRDKSRSPSQNSQQSFDSSSPPTPQCHKRHRHCPVVVSEATIVGVRKTGQIWPNDGEGAFHGDADGSFGTPPGYGCAADRAEEQRRHQDGLPYIDDSPSSSPHLSSKGRGSRDALVSGALESTKASELDLEKGLEMRKWVLSGILASEETYLSHLEALLLPMKPLKAAATTSQPVLTSQQIETIFFKVPELYEIHKEFYDGLFPRVQQWSHQQRVGDLFQKLASQLGVYRAFVDNYGVAMEMAEKCCQANAQFAEISENLRARSNKDAKDPTTKNSLETLLYKPVDRVTRSTLVLHDLLKHTPASHPDHPLLQDALRISQNFLSSINEEITPRRQSMTVKKGEHRQLLKDSFMVELVEGARKLRHVFLFTDLLLCTKLKKQSGGKTQQYDCKWYIPLTDLSFQMVDELEAVPNIPLVPDEELDALKIKISQIKNDIQREKRANKGSKATERLKKKLSEQESLLLLMSPSMAFRVHSRNGKSYTFLISSDYERAEWRENIREQQKKCFRSFSLTSVELQMLTNSCVKLQTVHSIPLTINKEDDESPGLYGFLNVIVHSATGFKQSSNLYCTLEVDSFGYFVNKAKTRVYRDTAEPNWNEEFEIELEGSQTLRILCYEKCYNKTKIPKEDGESTDRLMGKGQVQLDPQALQDRDWQRTVIAMNGIEVKLSVKFNSREFSLKRMPSRKQTGVFGVKIAVVTKRERSKVPYIVRQCVEEIERRGMEEVGIYRVSGVATDIQALKAAFDVNNKDVSVMMSEMDVNAIAGTLKLYFRELPEPLFTDEFYPNFAEGIALSDPVAKESCMLNLLLSLPEANLLTFLFLLDHLKRVAEKEAVNKMSLHNLATVFGPTLLRPSEKESKLPANPSQPITMTDSWSLEVMSQVQVLLYFLQLEAIPAPDSKRQSILFSTEV
B6: RNASE3 (protein, UniProt P12724 28-160, looked up)
Eosinophil cationic protein: RPPQFTRAQWFAIQHISLNPPRCTIAMRAINNYRWRCKNQNTFLRTTFANVVNVCGNQSIRCPHNRTLNNCHRSRFRVPLLHCDLINPGAQNISNCTYADRPGRRFYVVACDNRDPRDSPRYPVVPVHLDTTI
B7: CCL25 (protein, UniProt O15444 24-150, looked up)
C-C motif chemokine 25: QGVFEDCCLAYHYPIGWAVLRRAWTYRIQEVSGSCNLPAAIFYLPKRHRKVCGNPKSREVQRAMKLLDARNKVFAKLHHNTQTFQAGPHAVKKLSSGNSKLSSSKFSNPISSSKRNVSLLISANSGL
B8: WAS (protein, UniProt P42768 2-502, looked up)
Actin nucleation-promoting …: SGGPMGGRPGGRGAPAVQQNIPSTLLQDHENQRLFEMLGRKCLTLATAVVQLYLALPPGAEHWTKEHCGAVCFVKDNPQKSYFIRLYGLQAGRLLWEQELYSQLVYSTPTPFFHTFAGDDCQAGLNFADEDEAQAFRALVQEKIQKRNQRQSGDRRQLPPPPTPANEERRGGLPPLPLHPGGDQGGPPVGPLSLGLATVDIQNPDITSSRYRGLPAPGPSPADKKRSGKKKISKADIGAPSGFKHVSHVGWDPQNGFDVNNLDPDLRSLFSRAGISEAQLTDAETSKLIYDFIEDQGGLEAVRQEMRRQEPLPPPPPPSRGGNQLPRPPIVGGNKGRSGPLPPVPLGIAPPPPTPRGPPPPGRGGPPPPPPPATGRSGPLPPPPPGAGGPPMPPPPPPPPPPPSSGNGPAPPPLPPALVPAGGLAPGGGRGALLDQIRQGIQLNKTPGAPESSALQPPPQSSEGLVGALMHVMQKRSRAIHSSDEGEDQAGDEDEDDEWDD
B9: CD69 (protein, UniProt Q07108 1-199, looked up)
Early activation antigen CD69: MSSENCFVAENSSLHPESGQENDATSPHFSTRHEGSFQVPVLCAVMNVVFITILIIALIALSVGQYNCPGQYTFSMPSDSHVSSCSEDWVGYQRKCYFISTVKRSWTSAQNACSEHGATLAVIDSEKDMNFLKRYAGREEHWVGLKKEPGHPWKWSNGKEFNNWFNVTGSDKCVFLKNTEVSSMECEKNLYWICNKPYK
B10: FR-gamma (protein, UniProt P41439 23-245, looked up)
Folate receptor gamma: QPRSARARTDLLNVCMNAKHHKTQPSPEDELYGQCSPWKKNACCTASTSQELHKDTSRLYNFNWDHCGKMEPTCKRHFIQDSCLYECSPNLGPWIRQVNQSWRKERILNVPLCKEDCERWWEDCRTSYTCKSNWHKGWNWTSGINECPAGALCSTFESYFPTPAALCEGLWSHSFKVSNYSRGSGRCIQMWFDSAQGNPNEEVAKFYAAAMNAGAPSRGIIDS

This assay deals with plasma proteins. Kind of assay: Plasma proteins modulated between baseline and day 28 in responders (CR, VGPR, PR; n = 19), Example 6 (Table 13). Format: in vivo, human. Particulars: plasma protein (OLINK NPX); responders (CR, VGPR, PR; n = 19); itacitinib 200 mg or 300 mg QD with corticosteroids; day 28 vs baseline. In a few lines: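 Plasma at baseline/screening and day 28 profiled for >1000 proteins by OLINK proximity extension assay, reported as NPX (log2). Steroid-naive and steroid-refractory patients pooled. Paired and unpaired t tests, ANOVA and Pearson correlation applied; significance at P<0.05.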
Consider B1, for which the “Fold Change, Decreased Expression from Baseline to Day 28” value (“Fold Change, Decreased Expression” below) is −1.2074.
Same read-out and setting: for B2 the value was −1.8687.
Still for that read-out and setting: for B3 the value was −1.1574; for B4, −1.4304.
Same read-out and setting: for B5 the value was −1.8219.
As for B6, the “Fold Change, Decreased Expression” value was −2.6612.
As for B7, the “Fold Change, Increased Expression from Baseline to Day 28” value was 2.106.
For B8, the “Fold Change, Decreased Expression” value is −2.133.
Still for that read-out and setting: with B9 the figure was −1.7621; with B10, −1.2115.
